Laboratory results from publication PMC11570840.

Key:
[1] = target: β2-adrenergic receptor C terminally fused with RlucII (β2AR-RlucII) (UniProt P07550); test: FRET or BRET; live HEK293 cells co-transfected with donor β2AR-RlucII and acceptor NES-Venus-mGs, -mGsi or -mGsq; 48 h after transfection stimulated 20 min with increasing concentrations of ISO; 5 μM coelenterazine H in PBS; data as % of maximal ISO-induced mGs recruitment
[2] = target: β2-adrenergic receptor C terminally fused with RlucII (β2AR-RlucII) (UniProt P07550); test: FRET or BRET; live HEK293 cells co-transfected with donor β2AR-RlucII and acceptor NES-Venus-mGsq; stimulated 20 min with increasing concentrations of ISO, epinephrine, norepinephrine or formoterol; data as % of maximal ISO-induced mGsq recruitment

efficacy of ISO-induced recruitment, % of mGs [1] [%]	efficacy of recruitment with epinephrine, % of ISO [2] [%]	efficacy of recruitment with formoterol, % of ISO [2] [%]	efficacy of recruitment with norepinephrine, % of ISO [2] [%]	Substance
60	–	–	–	NES-Venus-mGsi (mini G protein mGsi)
20	60	80	40	NES-Venus-mGsq (mini G protein mGsq)
